Where a chain is given by its changes, count along the chain named. Names may count otherwise.
T1: EsCas13d, nuclease-dead (Eubacterium siraeum, UniProt B0MS50, R295A;H300A;R849A;H854A)
T1 sequence: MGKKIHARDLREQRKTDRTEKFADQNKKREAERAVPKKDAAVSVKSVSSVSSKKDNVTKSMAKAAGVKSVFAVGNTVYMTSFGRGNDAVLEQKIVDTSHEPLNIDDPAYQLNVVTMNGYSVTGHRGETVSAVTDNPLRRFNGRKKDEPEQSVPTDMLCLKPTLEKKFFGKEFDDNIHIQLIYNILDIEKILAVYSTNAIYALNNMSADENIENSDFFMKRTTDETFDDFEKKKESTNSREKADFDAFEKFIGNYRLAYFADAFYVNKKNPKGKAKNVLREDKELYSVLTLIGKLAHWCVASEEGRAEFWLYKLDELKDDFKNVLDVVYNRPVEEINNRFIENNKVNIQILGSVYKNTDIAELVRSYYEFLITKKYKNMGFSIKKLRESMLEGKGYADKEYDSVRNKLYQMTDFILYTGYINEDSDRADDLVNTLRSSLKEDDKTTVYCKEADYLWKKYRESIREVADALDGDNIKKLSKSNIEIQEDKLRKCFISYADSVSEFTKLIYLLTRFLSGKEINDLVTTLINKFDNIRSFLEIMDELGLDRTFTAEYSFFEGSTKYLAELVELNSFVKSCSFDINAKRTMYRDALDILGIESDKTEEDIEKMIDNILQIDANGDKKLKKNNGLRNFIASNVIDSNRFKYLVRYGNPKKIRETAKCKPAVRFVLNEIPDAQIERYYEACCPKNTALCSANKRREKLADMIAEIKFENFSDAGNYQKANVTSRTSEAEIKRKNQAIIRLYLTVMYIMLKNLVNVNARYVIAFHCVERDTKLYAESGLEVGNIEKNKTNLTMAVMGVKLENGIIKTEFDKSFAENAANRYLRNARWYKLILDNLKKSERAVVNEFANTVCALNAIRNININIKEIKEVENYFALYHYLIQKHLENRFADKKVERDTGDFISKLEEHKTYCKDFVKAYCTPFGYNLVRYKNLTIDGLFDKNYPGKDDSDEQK

B1: target 1 insC 3' of 3,insU 3' of 1 (mixed)
RNA 1: CACCCGUGCAAAAAUGCAGGGGUCUAAAACUGAGCGGAUAACCUCUCUAUGG
RNA 2: GGGAAUGGAUCCACAUCUACGAAUUCGUACCAUAGAGAGGUUAUCCGCUCCAUCCGAGAUCGGAAGAGCACACGU
B2: target 1 insU 3' of 22,insG 3' of 7 (mixed)
RNA 1: B1 RNA 1
RNA 2: GGGAAUGGAUCCACAUCUACGAAUUCGUACUCAUAGAGAGGUUAUCGCGCUCACCGAGAUCGGAAGAGCACACGU
B3: target 1 insC 3' of 15,insC 3' of 5 (mixed)
RNA 1: B1 RNA 1
RNA 2: GGGAAUGGAUCCACAUCUACGAAUUCGUACCAUAGAGCAGGUUAUCCGCCUCACCGAGAUCGGAAGAGCACACGU
B4: target 1 insC 3' of 3,insC 3' of 1 (mixed)
RNA 1: B1 RNA 1
RNA 2: B1 RNA 2 with U53C
B5: target 1 G12C,C22A (mixed)
RNA 1: B1 RNA 1
RNA 2: GGGAAUGGAUCCACAUCUACGAAUUCGUAACAUAGAGAGCUUAUCCGCUCACCGAGAUCGGAAGAGCACACGU
B6: target 1 insA 3' of 22,insU 3' of 21 (mixed)
RNA 1: B1 RNA 1
RNA 2: GGGAAUGGAUCCACAUCUACGAAUUCGUACACUAUAGAGAGGUUAUCCGCUCACCGAGAUCGGAAGAGCACACGU
B7: target 1 G17A,C22U (mixed)
RNA 1: B1 RNA 1
RNA 2: B5 RNA 2 with A30U, G35A, C40G
B8: target 1 insU 3' of 21,insG 3' of 3 (mixed)
RNA 1: B1 RNA 1
RNA 2: B2 RNA 2 with U31C, C32U, G47C, C48G, G49C, C50U, U51G
B9: target 1 insA 3' of 6,insA 3' of 3 (mixed)
RNA 1: B1 RNA 1
RNA 2: B1 RNA 2 with G47A, C48G, U49C, C50U, C51A, A52C, U53A
B10: target 1 insC 3' of 1,insC 3' of 1 (mixed)
RNA 1: B1 RNA 1
RNA 2: B1 RNA 2 with C51A, A52C, U53C
B11: target 1 insU 3' of 14,insA 3' of 10 (mixed)
RNA 1: B1 RNA 1
RNA 2: B3 RNA 2 with C38A, A39U, U45A, C46U, G48C, C49G
B12: target 1 insG 3' of 19,insA 3' of 4 (mixed)
RNA 1: B1 RNA 1
RNA 2: B3 RNA 2 with A34G, G35A, A36G, G37A, C38G, C50A
B13: target 1 insG 3' of 14,insA 3' of 8 (mixed)
RNA 1: B1 RNA 1
RNA 2: B3 RNA 2 with C38A, A39G, C46A, G48C, C49G
B14: target 1 insC 3' of 12,insU 3' of 5 (mixed)
RNA 1: B1 RNA 1
RNA 2: B3 RNA 2 with C38A, A39G, G41C, C49U
B15: target 1 insU 3' of 14,insU 3' of 1 (mixed)
RNA 1: B1 RNA 1
RNA 2: B3 RNA 2 with C38A, A39U, C50U, U51C, C52A, A53U
B16: target 1 U8G,G15C (mixed)
RNA 1: B1 RNA 1
RNA 2: B5 RNA 2 with A30C, G37C, C40G, U44G
B17: target 1 insC 3' of 17,insG 3' of 7 (mixed)
RNA 1: B1 RNA 1
RNA 2: B3 RNA 2 with A36C, G37A, C38G, C47G, G48C, C49G
B18: target 1 insA 3' of 7,insG 3' of 6 (mixed)
RNA 1: B1 RNA 1
RNA 2: B1 RNA 2 with C46A, G47C, C48G, U49G, C51U, A52C, U53A
B19: target 1 insA 3' of 5,insU 3' of 5 (mixed)
RNA 1: B1 RNA 1
RNA 2: B1 RNA 2 with C48A, C51U, A52C, U53A
B20: target 1 insC 3' of 3,insG 3' of 1 (mixed)
RNA 1: B1 RNA 1
RNA 2: B1 RNA 2 with U53G
B21: target 1 insG 3' of 8,insC 3' of 1 (mixed)
RNA 1: B1 RNA 1
RNA 2: B1 RNA 2 with C45G, G47C, C48G, U49C, C50U, U53C
B22: target 1 insG 3' of 9 (mixed)
RNA 1: B1 RNA 1
RNA 2: GGGAAUGGAUCCACAUCUACGAAUUCGUACCAUAGAGAGGUUAGUCCGCUCACCGAGAUCGGAAGAGCACACGU
B23: target 1 C2U,A20U (mixed)
RNA 1: B1 RNA 1
RNA 2: B5 RNA 2 with A30C, A32U, C40G, C50U
B24: target 1 C6G,A18G (mixed)
RNA 1: B1 RNA 1
RNA 2: B5 RNA 2 with A30C, A34G, C40G, C46G
B25: target 1 insU 3' of 4,insA 3' of 4 (mixed)
RNA 1: B1 RNA 1
RNA 2: B1 RNA 2 with C50A, C51U, A52C, U53A
B26: target 1 insG 3' of 22,insA 3' of 4 (mixed)
RNA 1: B1 RNA 1
RNA 2: B2 RNA 2 with U31G, G47C, C48G, G49C, C50A
B27: target 1 C6G,G17U (mixed)
RNA 1: B1 RNA 1
RNA 2: B5 RNA 2 with A30C, G35U, C40G, C46G
B28: target 1 insC 3' of 19,insG 3' of 16 (mixed)
RNA 1: B1 RNA 1
RNA 2: B6 RNA 2 with A31C, C32A, A34C, U35A, A36G, G37A, A38G

What follows are binders tested against T1, EsCas13d, nuclease-dead (assay: crRNA (strand 1, pre-loaded); Mg2+; 40 mM Tris-HCl pH 7.5, 150 mM NaCl, 6 mM MgCl2, 1 mM DTT, 0.1% Tween-20, 0.2 mg/ml BSA; 25 C; 10 min per concentration, then washed). Settings: tags: His6-TwinStrep-SUMO cleaved; N-terminal SNAP kept (SNAP-Surface 488); label: 3' end held by stalled T7 RNA polymerase.

| Binder | Kd [nM] |
| --- | --- |
| B1 | 10.8 ± 0.8 |
| B2 | 22.8 ± 1.6 |
| B3 | 9.8 ± 0.4 |
| B4 | 15.8 ± 1.1 |
| B5 | 25 ± 1.1 |
| B6 | 6.09 ± 0.28 |
| B7 | 59 ± 11 |
| B8 | 16.8 ± 0.7 |
| B9 | 21.5 ± 2.2 |
| B10 | 11.2 ± 0.5 |
| B11 | 43 ± 5 |
| B12 | 34.8 ± 3.1 |
| B13 | 10.6 ± 0.4 |
| B14 | 11.6 ± 1.5 |
| B15 | 48 ± 8 |
| B16 | 90 ± 19 |
| B17 | 42 ± 7 |
| B18 | 8.09 ± 0.34 |
| B19 | 6.6 ± 0.6 |
| B20 | 11.1 ± 0.8 |
| B21 | 11.6 ± 0.5 |
| B22 | 17.2 ± 1 |
| B23 | 34 ± 4 |
| B24 | 48 ± 7 |
| B25 | 9.1 ± 0.5 |
| B26 | 17.9 ± 2.6 |
| B27 | 31.4 ± 2.7 |
| B28 | 61 ± 11 |

From article PMC10786891, “Massively parallel profiling of RNA-targeting CRISPR-Cas13d”
